No end group written: not given here.

IC50 (activity on α9α10 nAChR, oocytes as in Example 1) data for one molecule are collected here from patent US20090203616A1.

This assay concerns the target α9α10 subtype of the nicotinic acetylcholine receptor (nAChR) (rat) (UniProt P43144). In words: cell-based or functional assay.

α9α10 subtype of the nicotinic acetylcholine receptor (nAChR) (rat), sequence (P43144 26-479, chain 1 of 2): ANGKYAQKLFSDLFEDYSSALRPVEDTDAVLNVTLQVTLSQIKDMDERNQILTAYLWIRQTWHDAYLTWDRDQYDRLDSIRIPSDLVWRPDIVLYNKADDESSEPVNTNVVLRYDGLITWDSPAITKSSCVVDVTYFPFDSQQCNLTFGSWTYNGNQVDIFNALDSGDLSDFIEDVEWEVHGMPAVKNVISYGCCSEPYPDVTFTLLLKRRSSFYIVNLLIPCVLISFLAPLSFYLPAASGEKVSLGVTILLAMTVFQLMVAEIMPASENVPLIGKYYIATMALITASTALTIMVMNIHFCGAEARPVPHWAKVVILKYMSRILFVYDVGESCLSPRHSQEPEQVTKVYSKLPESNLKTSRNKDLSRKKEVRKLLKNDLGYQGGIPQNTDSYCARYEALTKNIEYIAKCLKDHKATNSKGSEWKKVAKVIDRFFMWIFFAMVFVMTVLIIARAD
α9α10 subtype of the nicotinic acetylcholine receptor (nAChR) (rat), sequence (Q9JLB5 25-447, chain 2 of 2, further chain): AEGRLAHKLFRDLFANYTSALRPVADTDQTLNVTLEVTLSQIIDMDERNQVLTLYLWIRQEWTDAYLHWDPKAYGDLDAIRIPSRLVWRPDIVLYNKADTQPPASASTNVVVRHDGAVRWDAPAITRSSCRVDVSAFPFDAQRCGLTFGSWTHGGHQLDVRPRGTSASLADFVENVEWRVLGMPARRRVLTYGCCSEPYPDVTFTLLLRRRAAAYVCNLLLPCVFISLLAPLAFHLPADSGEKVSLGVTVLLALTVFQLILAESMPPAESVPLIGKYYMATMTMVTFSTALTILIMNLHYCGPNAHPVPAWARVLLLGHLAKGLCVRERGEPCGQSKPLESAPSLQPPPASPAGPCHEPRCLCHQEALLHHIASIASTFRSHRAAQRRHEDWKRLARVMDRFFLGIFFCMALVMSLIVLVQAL

The molecule GCCSDPRCRYRC (not fully specified (C-terminus); ends and bridges not checked) [RgIA-Cys-amide] came in with an IC50 (activity on α9α10 nAChR, oocytes as in Example 1) of 7.8 nM.
